Source: the DeepSol protein solubility set

assay: soluble on expression in E. coli; label from the status in PepcDB or PDB records

Q: For “MGSDKIHHHHHHMKESLRILHINDLHSHFEAYPKIKRFFAEHSKTQREVLRFDIGDNVDKSHPLTDVSAGRVNVDLMNDLGIDFATIGNNEGIGLAKAEINQLYHKADFQVILGNLRDKKGRPTWAQPYVIYETKAGTKLALLAYTFPYYWTYVPNGWQVLDAISSLKKDLENPEVAAADFRILLSHLGIRLDEKIARQVPEIDLIIGAHTHHVFEEGEVVNGTYLAAAGRYGDHVGQIDLDFEDHSLTNIAIEAVPTSDLDSEKEDAAFVAHLFEEGEKLLAENLICKLSRQPSLKECADLVMEAMKKSAAADLAIINTGLVVEPFSQNLTKADLHKSLPHQMRLVKFQVTQTELLEICHDIFSQADLLANQQIRGMGFRGKQFGKVVTSGFTYKNGKIVYNNKAIGRKDKMSLVLVDQYYFAPYFNSLTSRKGQLLFPDLLRQTVEKYLRGDL”, which “soluble on expression in E. coli” value is on record?
A: not soluble

Q: Which “soluble on expression in E. coli” value does the source give for “GSHMASMTGGQQMGRGSWKRAFLAFGSNIGDRFKHIQMALQLLSREKTVKLRNISSIFESEPMYFKDQTPFMNGCVEVETLLTPSELLKLCKKIEYEELQRVKHFDNGPRTIDLDIVMFLNSAGEDIIVNEPDLNIPHPRMLERTFVLEPLCELISPVHLHPVTAEPIVDHLKQLYDKQHDEDTLWKLVPLPYRSGVEPRFLKFKTATKLDEFTGETNRITVSPTYIMAIFNATPDSFSDGGEHFADIESQLNDIIKLCKDALYLHESVIIDVGGCSTRPNSIQASEEEEIRRSIPLIKAIRESTELPQDKVILSIDTYRSNVAKEAIKVGVDIINDISGGLFDSNMFAVIAENPEICYILSHTRGDISTMNRLAHYENFALGDSIQQEFVHNTDIQQLDDLKDKTVLIRNVGQEIGERYIKAIDNGVKRWQILIDPGLGFAKTWKQNLQIIRHIPILKNYSFTMNSNNSQVYVNLRNMPVLLGPSRKKFIGHITKDVDAKQRDFATGAVVASCIGFGSDMVRVHDVKNCSKSIKLADAIYKGLE” here?
A: soluble

Q: Which “soluble on expression in E. coli” value does the source give for “PRGSHMIILAFDIFGTVLDTSTVIQEFRNKQLEYTWLLTIMGKYVEFEEITKITLRYILKVRGEESKFDEELNKWKNLKAYEDTKYLKEISEIAEVYALSNGSINEVKQHLERNGLLRYFKGIFSAESVKEYKPSPKVYKYFLDSIGAKEAFLVSSNAFDVIGAKNAGMRSIFVNRKNTIVDPIGGKPDVIVNDFKELYEWILRYK” here?
A: soluble

Q: With “MQTSPLLTQLMEALRCLPGVGPKSAQRMAFTLLQRDRSGGMRLAQALTRAMSEIGHCADCRTFTEQEVCNICSNPRRQENGQICVVESPADIYAIEQTGQFSGRYFVLMGHLSPLDGIGPDDIGLDRLEQRLAEEKITEVILATNPTVEGEATANYIAELCAQYDVEASRIAHGVPVGGELEMVDGTTLSHSLAGRHKIRF” as the sequence, how does the “soluble on expression in E. coli” value read?
A: soluble

Q: Which “soluble on expression in E. coli” value does the source give for “MTLKELYAETRSHMQKSLEVLEHNLAGLRTGRANPALLLHLKVEYYGAHVPLNQIATVTAPDPRTLVVQSWDQNALKAIEKAIRDSDLGLNPSNKGDALYINIPPLTEERRKDLVRAVRQYAEEGRVAIRNIRREALDKLKKLAKELHLSEDETKRAEAEIQKITDEFIAKADQLAEKKEQEILG” here?
A: soluble

Q: With “MSLSTSSKVVRLDVSRSQQEAVKGVKLPALLIKLRDRCGEHNRKLLDRLFEQVDDSFFDLADKSATNSEQALFFDAMREIRLKKERIAALFMQYYNRDFQFLEVQKPGMLKANFDPQNLTLVQEDKLEEQVAIDNMVNRFKSEIGRDLEHLTIRLDSLLFDVSVEEENNPLGPLRMVTNFVTACAELELGIRAKLVFFKLFEKHVLTQNKAVLEAANKFLAEQGVMPDLSASRSVRRTGVNLPHASGSVIDQNTGAVGDYNEGGWDPQIDPLQYMRQFSDAQMAGAAGAAVNLPVVQQTALLNLLSRLQTTNKAPATALSDNGLINFMGLMERAVLSKEGQPRASVGRLDQDVMNLVTMLFEFILDDRQLPAAIRAVIARLQIPILKVALLDRTFFNQGGHSARRLLNEMATASIGWTEKAPGEPDAFLAKLEEVVQRLVTEFDNDITIFDEVLEDFIRFRESDKKRRHLLEQRTRDAEVGRAKSDAAKKVVQDVLNDMLAGKNIPALVMEVLKEGWSNYMVLLQLKSGREHPDWLQAQSVAARLIQGCDPDDTSGEAPEVAAVEKLMEELRVGLQQTAYKPFELDKTLRQLQKVLSETTQQRLAKEVTLDDEGHHHHHH” as the sequence, how does the “soluble on expression in E. coli” value read?
A: soluble

Q: Which “soluble on expression in E. coli” value does the source give for “MSLAREDYAAQVALLVRVLPYVAKEEIFALKGGTAINLFYRDLPRLSVDIDLTYLPVKDRAESLVEINDAMDRIAAAIEGGITGAKAQRIAGGGGGATRALARLGTAEIKIETSPVTRGVVHDPEQREVSEAVEEEFGYATMNIVSFEDLFGGKLHAALDRQHPRDLYDVKLLYENEGFTDELFRTFLIYVASSPRPPHELLNPNLIDLDQPYAREFEGMTKEAVDLAELIATRDRLIGDIQSRLNDDAKRFLRTLHEGDPDFDAIDRPQGAGLPAVRWKLINVNNPNKNAQAAFTGAVVELLPFCGEGHHHHHH” here?
A: not soluble

Q: Which “soluble on expression in E. coli” value does the source give for “MSLTSQVSSTTEQADEPVVGEQRKPAGAKDVRRLDRVIIRFAGDSGDGMQLTGDRFTSETASFGNDLSTLPNFPAEIRAPAGTLPGVSSFQLHFADHDILTPGDAPNVLVAMNPAALKANVSDLPRGAEVIVNTDEFTKRAMQKVGYGTSPLEDGSLDGYSVHPVPLTTLTVEALKEFELSRKEAERSKNMFALGLLSWMYHRPTEGTEKFLTTKFAKKPAIAAANIAAFRAGWNFGETTEDFAVSYEVAPAQSAFPAGTYRNISGNLALSYGLIAASRQADLPLYLGSYPITPASDILHELSKHKNFGVRTFQAEDEIAGIGAALGAAFGGSLAVTTTSGPGVALKSETIGLAVSLELPLLVVDIQRGGPSTGLPTKTEQADLLQAMYGRNGEAPVPVVAPRTPADCFEAAIEAARIALTYRTPVFLLSDGYLANGSEPWRIPETDGLPDLRVRFAQGPNHTLDDGTEVFWPYKRDPGTLARPWAIPGTPGLEHRIGGIEKQDGTGNISYDPANHDFMVRTRQAKIDGIDVPDIEVDDPDGASALVLGWGSTYGPITAAVRRLRTAGESIAQAHLRHLNPFPSNLGAVLKGYDKVVIPEMNLGQLATLIRAKYLVDAHSYNQVNGMPFKAEQLATALKEAIDEGHHHHHH” here?
A: not soluble

Q: Which “soluble on expression in E. coli” value does the source give for “MLGGFVMDLFPFLPGVRISLQSGWLPSGAADALLAGLLEGVPWEVHRIHIFGREVNSPRLSCWVGDPQASYRYSGRCFQPRPWWPALAELRMCLEGETGAVFNSVLLNRYRHGGDAIGWHSDDEAELGIDPLIASVSLGASRRFVFRHRRERHLRAECVLSHGDLLLMGGTTQRDYQHALPRTLRVVGERVNLTFRRILMLEHHHHHH” here?
A: soluble

Q: For “MSLTENKGTPEVGWSFDTRYTDLPSMMFSNVEPEPVEAPKLVILNDSLAQSLGLDPVALQHQNSIAVLAGNEVPKGAAPLAQAYAGHQFGHFTMLGDGRAILLGEQITPNGERFDIQLKGSGRTPYSRQGDGRAALGPMLREYIISEAMHALGIPTTRSLAVVTTGESVFRETVLPGAILTRVAASHIRVGTFQFVANAGSEEELKALADYTLARHFPEVEADRENRYLALLQKVIKRQAELIAKWQLVGFIHGVMNTDNMTISGETIDYGPCAFMDVYDPETVFSSIDTRGRYAYGNQPRIGAWNLARFAEALLPLLADDQDEAIKLAEAEISNYAEQFEHHWLNGMRAKLGLFNEESEDLSLIKDLLEVMHKHKADFTNTFRALTFDEQEETGLHDKLEFTEWHERWQARLGRQEQTKDDSHNLMKMSNPAVIPRNHRVEEALEAAVEQEDYQVMERLLKVLANPFAHSPEQKAYAKLPAPCAIPYRTYCGTEGHHHHHH”, which “soluble on expression in E. coli” value is on record?
A: not soluble

Q: With “GPGSMEPKSVEEYSQQNYWIGRYEVEEQHDWFLSVRQPTIAALCDELLKVFQQRERLHSADGNVEGDQPALRVLHLGTGNSSLCMDLYEAVRERQLPFALHQVAMDYAPNVIERMQSKYSPDILPNAQWIVGDVRKLEEFREYGPFDAVIEKGTMDAIEADKNRPEMKGDVEAMLHGVDTLLKHAKGYGAFLQVTWVAPHLRLPYTKGDAFAWGDQVRYSLLGESDIYRLFVYTVRE” as the sequence, how does the “soluble on expression in E. coli” value read?
A: soluble

Q: With “MGSDKIHHHHHHMKISICGKGGCGKSSITTLLAKEFAKKGHNVLVIDGDESNLSLHKLLGMDLPKDFIEYLGGRKEFMKKLREKMDGKEVELFEGEISIDSLPKEYLVEKDNIKLLAIGKIHDFGEGCACPMGALLREFLKSLKLKDKEVVIVDTEAGIEHFGRGVEGGCDVIIAIIDPTYESIRLSKKIEEIGEKLGKKVYFIVNKVDDETKDLILENVNKDKVIAVIPNNKEIMKCGLMGEELNAELSEIKDVVEILTK” as the sequence, how does the “soluble on expression in E. coli” value read?
A: not soluble

Q: With “LALVATGNDTTTKPDLYYLKNSEAINSLALLPPPPAVGSIAFLNDQAMYEQGRLLRNTERGKLAAEDANLSSGGVANAFSGAFGSPITEKDAPALHKLLTNMIEDAGDLATRSAKDHYMRIRPFAFYGVSTCNTTEQDKLSKNGSYPSGHTSIGWATALVLAEINPQRQNEILKRGYELGQSRVICGYHWQSDVDAARVVGSAVVATLHTNPAFQQQLQKAKAEFAQHQKK” as the sequence, how does the “soluble on expression in E. coli” value read?
A: soluble

Q: For “MKDNNEVLKLFIVSDSIGETAQRMIHATLTQFPDLTQVEIKKFPYIKDEQEFLNVLQLAKEQNAIVATTLVSESFNALGHQFANEHQIPYVDYMSELISIIKQHTHAKPLMESGALRKLNDEYFKRIEAIEYSVKYDDGKHFTDIGEADALIVGVSRTSKTPLSMYLANKGYKIANIPLVPEVAIPDNVFQQKNLKVFGLTASPNYIANIRRNRAETLGLSSESNYNSLERIKKELSYAEEVFRKLNATVINTEYKSIEESAFYIEKFLAKRLEHHHHHH”, which “soluble on expression in E. coli” value is on record?
A: not soluble

Q: With “FPSKARMFEGLIEFIEESLMSRINRIFDEEKDTLNRIRLVMQLLLAFAERNPGLTRILSGHALMFENERLRDRINQLFERIETSLRQILRERKLREGKSFPVDENILAAQLLGQVEGSLNRFVRSDFKYLPTANFDEYWALLSAQIK” as the sequence, how does the “soluble on expression in E. coli” value read?
A: not soluble

Q: For “MDAVRQSFQQLQNELRRDWCGIEAGGLASDYDILVVPSLSLDAHELQKISGVLFYEERLLFSLIRLRDPRTRVIYVTSEPLPPLVIDYYLQLLPGIPFSHARDRLLLLSTCDSSLKPLTQKILERPRLLERIRRALRPGSSFMTCFNSSPLERELSVALRVPLFAADPDLLEWGTKAGSRSLFAECGLPHPAGSPLMDSVEDLAAAAAELWQDQPQAQRFVIKLNQGFSGEGNALLDLRPIAQQSPDRVGLTAASQAIAQQFPVMRFQAAHETWQNFQGRITDLGAIAELFIEGEVKRSPSVQGCIHPSGQVEILSTHDQILGGPDGQIYLGCRFPADPAYRLQLQKWGEQIGEALAQRGALERFGVDFVAVNQGGDHWELQAIEINLRKGGTTHPFMTLKYLTNGYYDPQSGQFCSELGQPKYYVATDNLQSPRYRGVLPQDLMDIIAANQLHFDSSTKTGTVFHLMGCLSQYGKLGLTSIGNSPEQAQALYDEVVSVLDRETDPALEHHHHHH”, which “soluble on expression in E. coli” value is on record?
A: soluble

Q: With “VKTGLYSLLGLIMRSALIDNFIESLNRSKYFHVVCSDPKPICNFIEKNLVRGATIVNAKGSFTGDNKYIILTVLSPSQAVKLRNFIKENSPGAFLLISNTSEIIGKGFHSV” as the sequence, how does the “soluble on expression in E. coli” value read?
A: not soluble

Q: For “MGGSHHHHHHGMASALAAKVDLSTSTDWKEAKSFLKGLSDKQREEHYFCKDFVRLKKIPTWKEMAKGVAVKVEEPRYKKDKQLNEKISLLRSDITKLEVDAIVNAANSSLLGGGGVDGCIHRAAGPLLTDECRTLQSCKTGKAKITGGYRLPAKYVIHTVGPIAYGEPSASQAAELRSCYLSSLDLLLEHRLRSVAFPCISTGVFGYPCEAAAEIVLATLREWLEQHKDKVDRLIICVFLEKDEDIYRSRLPHYFPVA”, which “soluble on expression in E. coli” value is on record?
A: not soluble

Q: For “SLSSTQSVNSVLAPGNLRKVHHIALNVQDMQASRYFYGTILGLHELTDDEVPATLTELVASGKVANFITPDGTILDLFGEPELSPPDPNPEKTFTRAYHLAFDIDPQLFDRAVTVIGENKIAIAHGPVTRPTGRGVYFYDPDGFMIEIRCDPEAEG”, which “soluble on expression in E. coli” value is on record?
A: soluble
